According to US12637513B2, “Method of treating cancer by administering an inhibitor of erythropoietin receptor activity comprising either erythropoietin receptor or erythropoietin protein” (ImmunEdge, Inc., priority 2022, dated 2026):

Experiments:
[1] = tested on: PHD1-3; conditions: target PHD1-3; cited from earlier work
[2] = molecular target: Glucosidase; conditions: target Glucosidase; cited from earlier work
[3] = tested on: CD11c^IntMHCII^HighXCR1^+ cDC1s / OT-II cells; assay: In vitro Ag-specific Treg induction: pLN cDC1s loaded with Ova-thy cells and naïve OT-II cells; type: cell-based, mouse; conditions: untreated cells 25.5%
[4] = molecular target: T1, hetero-EPOR (Homo sapiens, UniProt P19235+P32927); conditions: cited from earlier work
T1 sequence (P19235 25-508): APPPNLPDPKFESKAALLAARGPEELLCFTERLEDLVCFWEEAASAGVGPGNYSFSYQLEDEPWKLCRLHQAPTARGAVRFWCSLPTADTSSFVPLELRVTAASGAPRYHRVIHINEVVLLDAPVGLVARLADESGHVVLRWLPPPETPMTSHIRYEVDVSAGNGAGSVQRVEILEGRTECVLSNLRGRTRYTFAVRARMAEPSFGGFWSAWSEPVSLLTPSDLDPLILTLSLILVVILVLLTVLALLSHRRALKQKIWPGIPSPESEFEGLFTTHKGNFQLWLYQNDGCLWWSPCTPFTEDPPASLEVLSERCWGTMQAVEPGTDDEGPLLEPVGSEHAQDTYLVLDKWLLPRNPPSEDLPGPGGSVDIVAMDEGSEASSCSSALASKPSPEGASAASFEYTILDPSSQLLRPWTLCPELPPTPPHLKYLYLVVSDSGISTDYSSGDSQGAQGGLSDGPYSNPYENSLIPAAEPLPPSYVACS
T1 sequence (P32927 17-897): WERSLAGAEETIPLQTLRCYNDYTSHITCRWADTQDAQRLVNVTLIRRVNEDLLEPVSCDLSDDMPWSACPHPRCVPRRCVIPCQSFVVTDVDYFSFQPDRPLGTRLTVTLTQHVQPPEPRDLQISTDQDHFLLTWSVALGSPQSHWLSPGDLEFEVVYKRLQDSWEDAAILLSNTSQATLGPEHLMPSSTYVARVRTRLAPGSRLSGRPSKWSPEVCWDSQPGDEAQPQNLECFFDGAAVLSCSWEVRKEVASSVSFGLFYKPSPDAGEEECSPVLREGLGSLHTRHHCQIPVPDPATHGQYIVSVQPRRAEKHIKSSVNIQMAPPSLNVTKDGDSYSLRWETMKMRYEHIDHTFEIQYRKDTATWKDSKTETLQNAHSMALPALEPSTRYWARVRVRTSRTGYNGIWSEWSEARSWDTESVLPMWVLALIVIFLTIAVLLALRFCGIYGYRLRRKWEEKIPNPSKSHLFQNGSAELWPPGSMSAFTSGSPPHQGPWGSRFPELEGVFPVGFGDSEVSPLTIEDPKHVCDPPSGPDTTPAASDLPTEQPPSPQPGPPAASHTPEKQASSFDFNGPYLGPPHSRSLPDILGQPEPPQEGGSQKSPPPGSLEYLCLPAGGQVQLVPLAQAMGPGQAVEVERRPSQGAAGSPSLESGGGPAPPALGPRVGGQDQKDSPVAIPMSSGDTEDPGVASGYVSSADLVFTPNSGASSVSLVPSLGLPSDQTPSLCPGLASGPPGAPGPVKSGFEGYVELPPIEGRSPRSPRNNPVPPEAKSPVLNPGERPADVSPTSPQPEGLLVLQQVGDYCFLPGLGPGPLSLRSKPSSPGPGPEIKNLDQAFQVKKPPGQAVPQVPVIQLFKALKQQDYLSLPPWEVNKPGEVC

[5] = molecular target: T2, EPOR (UT-7 cells) (Homo sapiens, UniProt P19235); assay: Flow-based phosphorylated Stat5 assay, blocking by anti-EPOR antibodies; type: cell-based; conditions: 20 μg/ml antibody; 0.1 μg/ml recombinant human EPO
T2 construct: endogenous in cells; host or cells: UT-7 human leukemia cells
T2 sequence (P19235 25-508): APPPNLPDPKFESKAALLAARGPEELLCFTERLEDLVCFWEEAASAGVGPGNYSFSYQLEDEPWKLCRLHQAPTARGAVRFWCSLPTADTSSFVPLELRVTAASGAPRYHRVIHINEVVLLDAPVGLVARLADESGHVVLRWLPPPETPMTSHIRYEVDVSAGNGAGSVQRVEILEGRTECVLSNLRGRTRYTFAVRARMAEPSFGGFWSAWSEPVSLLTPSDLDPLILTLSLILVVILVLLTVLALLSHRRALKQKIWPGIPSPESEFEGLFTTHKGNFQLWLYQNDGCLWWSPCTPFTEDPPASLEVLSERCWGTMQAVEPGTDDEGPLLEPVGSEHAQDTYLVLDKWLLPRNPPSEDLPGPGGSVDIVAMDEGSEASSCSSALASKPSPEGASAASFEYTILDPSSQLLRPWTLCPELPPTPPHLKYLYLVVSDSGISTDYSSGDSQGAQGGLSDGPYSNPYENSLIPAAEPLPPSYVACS
Protocol: EPOR activation leads to phosphorylation of Stat5. A flow-based assay on phosphorylated Stat5 was set up to test the blocking activities of anti-EPOR antibodies. The UT-7 cells were cultured without GM-CSF for overnight before the EPO stimulation. 3×10^6 cells/ml were incubated with 20 μg/ml of anti-EPOR for 15 minutes before stimulation with 0.1 μg/ml of recombinant human EPO (Peprotech®, Cat #100-64) for 10 minutes at 37° C. The cells were fixed immediately with fixation buffer (Cytofix™ buffer; BD Biosciences, Cat #554655) and permeabilized with methanol. After washing, cells were stained with PE labeled anti-Stat5 (BD Biosciences, Cat #612567) and subjected to flow cytometry analysis.

[6] = molecular target: T3, EPO/EPOR interaction (EPOR-CD131-Fc and EPO) (Homo sapiens, UniProt P19235+P32927); assay: Octet blocking of the EPO/EPOR interaction by hybridoma supernatants; type: binding; conditions: EPO 10 nM
T3 construct: Chimeric Fc fusion proteins of the extracellular domains of human EPOR and human CD131; purchased Sino Biological CT010-H02H
T3 sequence (P19235 25-250 limits assumed): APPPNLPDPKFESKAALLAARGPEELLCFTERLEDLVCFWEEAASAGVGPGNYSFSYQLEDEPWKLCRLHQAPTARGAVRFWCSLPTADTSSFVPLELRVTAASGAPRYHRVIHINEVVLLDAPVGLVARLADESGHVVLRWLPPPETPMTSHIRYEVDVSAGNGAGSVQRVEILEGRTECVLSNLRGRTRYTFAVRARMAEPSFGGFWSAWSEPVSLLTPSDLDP
T3 sequence (P32927 17-443 limits assumed): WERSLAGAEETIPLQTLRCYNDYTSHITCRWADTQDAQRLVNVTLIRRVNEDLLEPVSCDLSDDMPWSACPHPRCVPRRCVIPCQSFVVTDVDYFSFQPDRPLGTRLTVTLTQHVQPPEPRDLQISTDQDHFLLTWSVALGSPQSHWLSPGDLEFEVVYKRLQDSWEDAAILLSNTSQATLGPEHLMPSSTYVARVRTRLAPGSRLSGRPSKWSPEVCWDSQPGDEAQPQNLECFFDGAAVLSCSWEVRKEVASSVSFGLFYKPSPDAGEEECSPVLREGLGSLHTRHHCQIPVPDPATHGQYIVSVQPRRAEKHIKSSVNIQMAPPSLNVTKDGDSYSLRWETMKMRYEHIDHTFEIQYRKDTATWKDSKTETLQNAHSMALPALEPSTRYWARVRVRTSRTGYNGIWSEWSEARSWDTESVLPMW

[7] = molecular target: T4, 293T/EPOR cells (Homo sapiens, UniProt P19235); assay: Staining of 293T/EPOR cells with purified antibodies (flow cytometry); type: binding
T4 construct: expressed in transfected cells; host or cells: 293T cells expressing hEPOR
T4 sequence (P19235 25-508): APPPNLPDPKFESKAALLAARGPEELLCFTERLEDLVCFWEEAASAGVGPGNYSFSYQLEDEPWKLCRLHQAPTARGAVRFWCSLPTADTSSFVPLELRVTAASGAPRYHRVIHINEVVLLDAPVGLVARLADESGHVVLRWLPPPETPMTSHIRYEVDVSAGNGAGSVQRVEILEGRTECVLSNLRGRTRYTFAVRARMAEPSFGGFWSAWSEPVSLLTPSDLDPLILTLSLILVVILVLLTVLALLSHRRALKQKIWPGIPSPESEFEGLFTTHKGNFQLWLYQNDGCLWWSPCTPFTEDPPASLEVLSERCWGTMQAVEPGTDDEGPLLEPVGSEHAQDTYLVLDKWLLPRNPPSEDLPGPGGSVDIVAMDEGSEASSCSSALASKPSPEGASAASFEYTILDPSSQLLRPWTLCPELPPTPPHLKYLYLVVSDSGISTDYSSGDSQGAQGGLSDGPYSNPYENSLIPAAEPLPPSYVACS
Protocol: (§1) The purified antibodies were used to stain the human leukemia UT-7 cells, 293T/EPOR, 293T/CD131, and 293T/EPOR/CD131 cells to confirm antigen binding. The UT-7 cells were maintained in Roswell Park Memorial Institute (RPMI) with 10% Fetal Bovine Serum (FBS) and 5 ng/ml of recombinant human GM-CSF (Peprotech®, Cat #300-03). The 293T cells expressing hEPOR, hCD131, or both were maintained in Dulbecco's Modified Eagle Medium (DMEM) with 10% FBS. 1×10^6 cells/ml were incubated with purified hybridoma clones M2 and M41 at a 3-fold dilution series starting from 20 μg/ml for 30 minutes at 4° C. After washing, the cells were incubated with PE labeled secondary antibody and subjected to flowcytometric analysis. […] The binding profiles of the 293T/EPOR/CD131 cells are similar except the peak MFIs around 1500, half of that of the 293T/EPOR cells (FIG. 29B).

[8] = molecular target: T5, 293T/EPOR/CD131 cells (Homo sapiens, UniProt P19235); assay: Staining of 293T/EPOR/CD131 cells with purified antibodies; type: binding
T5 construct: expressed in transfected cells; host or cells: 293T cells, lentiviral transduction
T5 sequence (P19235 25-508): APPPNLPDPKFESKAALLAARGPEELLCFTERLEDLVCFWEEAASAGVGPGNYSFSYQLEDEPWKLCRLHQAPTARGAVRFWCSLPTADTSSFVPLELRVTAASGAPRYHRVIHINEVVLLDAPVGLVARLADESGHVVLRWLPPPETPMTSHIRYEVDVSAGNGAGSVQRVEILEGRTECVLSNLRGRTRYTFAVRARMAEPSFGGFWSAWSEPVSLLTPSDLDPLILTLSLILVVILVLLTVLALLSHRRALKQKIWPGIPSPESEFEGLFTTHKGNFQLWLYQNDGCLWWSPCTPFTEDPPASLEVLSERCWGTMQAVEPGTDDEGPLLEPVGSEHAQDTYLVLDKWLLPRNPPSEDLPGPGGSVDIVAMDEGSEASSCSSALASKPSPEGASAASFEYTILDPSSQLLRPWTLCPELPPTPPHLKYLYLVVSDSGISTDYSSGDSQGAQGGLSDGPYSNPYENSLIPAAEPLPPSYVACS
Protocol: as §1

[9] = molecular target: T6, 293T/CD131 cells (Homo sapiens, UniProt P32927); assay: Staining of 293T/CD131 cells with purified antibodies; type: binding
T6 construct: expressed in transfected cells; host or cells: 293T cells, lentiviral transduction
T6 sequence (P32927 17-897): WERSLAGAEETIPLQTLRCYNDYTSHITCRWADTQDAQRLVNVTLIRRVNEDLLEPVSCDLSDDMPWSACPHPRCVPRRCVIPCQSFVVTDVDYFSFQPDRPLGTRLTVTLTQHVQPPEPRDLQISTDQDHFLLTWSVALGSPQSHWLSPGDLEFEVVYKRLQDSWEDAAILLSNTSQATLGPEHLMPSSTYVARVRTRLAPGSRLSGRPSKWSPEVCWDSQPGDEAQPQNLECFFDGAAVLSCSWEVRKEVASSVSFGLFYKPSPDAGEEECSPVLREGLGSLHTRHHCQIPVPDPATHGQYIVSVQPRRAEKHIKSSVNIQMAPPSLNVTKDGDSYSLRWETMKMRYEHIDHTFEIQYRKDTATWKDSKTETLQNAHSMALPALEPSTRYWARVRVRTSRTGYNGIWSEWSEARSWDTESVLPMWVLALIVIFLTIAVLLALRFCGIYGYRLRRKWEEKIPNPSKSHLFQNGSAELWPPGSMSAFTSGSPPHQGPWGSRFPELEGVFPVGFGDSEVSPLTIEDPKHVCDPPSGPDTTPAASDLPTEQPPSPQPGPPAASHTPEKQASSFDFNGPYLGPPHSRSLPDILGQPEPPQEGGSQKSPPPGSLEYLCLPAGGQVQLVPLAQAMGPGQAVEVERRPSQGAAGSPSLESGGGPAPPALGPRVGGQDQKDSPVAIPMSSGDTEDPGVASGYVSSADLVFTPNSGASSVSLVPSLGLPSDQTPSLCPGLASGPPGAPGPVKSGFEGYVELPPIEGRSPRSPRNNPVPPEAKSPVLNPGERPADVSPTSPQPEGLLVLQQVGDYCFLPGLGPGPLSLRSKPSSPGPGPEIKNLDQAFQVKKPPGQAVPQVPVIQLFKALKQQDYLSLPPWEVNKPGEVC
Protocol: as §1

## O=C(O)CNC(=O)C1=C(O)CCN(Cc2ccc(Oc3ccc(Cl)cc3)nc2)C1=O [TP0463518]
[1]
  IC50: 5.3 to 63 nM

## O=c1cc(-c2ccc(O)cc2)oc2c([C@@H]3O[C@H](CO)[C@@H](O)[C@H](O)[C@H]3O)c(O)cc(O)c12 [Vitexin]
[2]
  IC50: 48 nM

## CEPO: chemically modified EPO analog in which the Lys residues are carbamylated [reference compound]
[3]
  FoxP3 expressing cells: 69.3%

## QEQLERALNSS
[4]
  activity for the hetero-EPOR: activates the hetero-EPOR

B1: EPORab - M41: hybridoma antibody clone, VH/VK in Table 10 (antibody, V domains shown)
VH: QVQLVESGGGLVQPGRSLRLSCAASGFTFDDYAIHWVRQAPGKGLEWVSGISYNSENIGYADSVKGRFTISRDNAKNSLYLQMNSLRSEDTALYYCAKDMFLTWFSSFDYWGQGTLVTVSS
VL: ETKLTQSPGTLSLSPGERTTLSCRASQSISNNYLAWYQQKPGQAPRLLIYRASTRATGIPDRFSGSGSGTDFTLTIRRLEPEDFAVYYCQRYGRSPLTFGGGTKVEIK
[5]
  blocking of Stat5 phosphorylation: partial blocking
[6]
  blocking of the EPO/EPOR interaction: partial blocking
[7]; 0.74 μg/ml purified antibody
  binding to 293T/EPOR cells: lost most of the binding
[7]; 20 μg/ml purified antibody
  binding to 293T/EPOR cells: robust binding activities
[8]
  peak MFI: around 1500
[9]
  staining of 293T/CD131 cells: did not stain
